No end group written: not given here. *: point of attachment. Biotin = O=C1N[C@H]2[C@H](CS[C@H]2CCCCC(=O)*)N1
What was measured:
[1] = target: T1, asyn_113-127_118A (human); experiment: Ala-scan peptide ELISA, row D, run 2
T1 construct: substitution is already in the entry; also called pep7
T1 peptide: Biotin-LEDMPADPDNEAYEM
Protocol: (§1) 96-well Nunc plates were coated with 50 μL per well of 1 μg/mL streptavidin (from Jackson Immuno Research Laboratory) in PBS at 4° C. overnight. The plates were washed three times with PBST, and blocked with PBS containing 3% BSA at room temperature for 1 hour. The N-terminal biotinylated peptides were dissolved in Milli Q water to a concentration of 2 mg/mL, then further diluted to a concentration of 2 μg/mL with PBS. 50 μl of the diluted peptide was applied to the streptavidin-coated plates and incubated at 4° C. overnight. 2 μg/mL of biotinylated human alpha-synuclein was used as the positive control. The plates were washed three times with PBST before use. Purified antibody was diluted by serial dilution methods, from 20 μg/mL to 1 ng/mL, and 50 μL of the antibody solution was added to the peptide-coated wells. The plates were incubated for 1 hour at room temperature, then washed three times with PBST. Secondary detection antibody (goat anti-rat HRP (obtained from Southern Biotech)) was added with 1:5,000 dilutions and incubated for 1 hour at room temperature, then washed three times with PBST. Plates were developed with 50 μL/well of TMB substrate (Thermo Fisher) and quenched with 50 μL/well of 1 N sulfuric acid. The signal was quantified on a BioTek® plate reader at A450. A parallel repeat was performed for each peptide in a separate plate.

[2] = target: T2, asyn_113-127_116A (human); experiment: Ala-scan peptide ELISA, row D, run 2
T2 construct: substitution is already in the entry; also called pep5
T2 peptide: Biotin-LEDAPVDPDNEAYEM
Protocol: as §1

[3] = target: T3, asyn_113-127_113A (human); experiment: Ala-scan peptide ELISA, row D, run 2
T3 construct: substitution is already in the entry; also called pep2
T3 peptide: Biotin-AEDMPVDPDNEAYEM
Protocol: as §1

[4] = target: T4, asyn_113-127_124G (human); experiment: Ala-scan peptide ELISA, row D, run 2
T4 construct: substitution is already in the entry; also called pep13
T4 peptide: Biotin-LEDMPVDPDNEGYEM
Protocol: as §1

[5] = target: T5, asyn_113-127_124P (human); experiment: Ala-scan peptide ELISA, row D, run 2
T5 construct: substitution is already in the entry; also called pep14
T5 peptide: Biotin-LEDMPVDPDNEPYEM
Protocol: as §1

[6] = target: T6, asyn_113-127_125A (human); experiment: Ala-scan peptide ELISA, row D, run 2
T6 construct: substitution is already in the entry; also called pep15
T6 peptide: Biotin-LEDMPVDPDNEAAEM
Protocol: as §1

[7] = target: T7, asyn_113-127_127A (human); experiment: Ala-scan peptide ELISA, row D, run 2
T7 construct: substitution is already in the entry; also called pep17
T7 peptide: Biotin-LEDMPVDPDNEAYEA
Protocol: as §1

[8] = target: T8, asyn_113-127_123A (human); experiment: Ala-scan peptide ELISA, row D, run 2
T8 construct: substitution is already in the entry; also called pep12
T8 peptide: Biotin-LEDMPVDPDNAAYEM
Protocol: as §1

[9] = target: T9, asyn_113-127_122A (human); experiment: Ala-scan peptide ELISA, row D, run 2
T9 construct: substitution is already in the entry; also called pep11
T9 peptide: Biotin-LEDMPVDPDAEAYEM
Protocol: as §1

[10] = target: T10, asyn_113-127 (human); experiment: Ala-scan peptide ELISA, row D, run 2
T10 construct: also called pep1
T10 peptide: Biotin-LEDMPVDPDNEAYEM
Protocol: as §1

[11] = target: T11, asyn_113-127_121A (human); experiment: Ala-scan peptide ELISA, row D, run 2
T11 construct: substitution is already in the entry; also called pep10
T11 peptide: Biotin-LEDMPVDPANEAYEM
Protocol: as §1

[12] = target: biotinylated human alpha-synuclein (human, UniProt P37840 1-140); experiment: Ala-scan peptide ELISA, row D, run 2
Protocol: as §1

[13] = target: T12, asyn_113-127_115A (human); experiment: Ala-scan peptide ELISA, row D, run 2
T12 construct: substitution is already in the entry; also called pep4
T12 peptide: Biotin-LEAMPVDPDNEAYEM
Protocol: as §1

[14] = target: T13, asyn_113-127_117A (human); experiment: Ala-scan peptide ELISA, row D, run 2
T13 construct: substitution is already in the entry; also called pep6
T13 peptide: Biotin-LEDMAVDPDNEAYEM
Protocol: as §1

[15] = target: T14, asyn_113-127_114A (human); experiment: Ala-scan peptide ELISA, row D, run 2
T14 construct: substitution is already in the entry; also called pep3
T14 peptide: Biotin-LADMPVDPDNEAYEM
Protocol: as §1

[16] = target: T15, asyn_113-127_120A (human); experiment: Ala-scan peptide ELISA, row D, run 2
T15 construct: substitution is already in the entry; also called pep9
T15 peptide: Biotin-LEDMPVDADNEAYEM
Protocol: as §1

[17] = target: T16, asyn_113-127_126A (human); experiment: Ala-scan peptide ELISA, row D, run 2
T16 construct: substitution is already in the entry; also called pep16
T16 peptide: Biotin-LEDMPVDPDNEAYAM
Protocol: as §1

[18] = target: T17, asyn_113-127_119A (human); experiment: Ala-scan peptide ELISA, row D, run 2
T17 construct: substitution is already in the entry; also called pep8
T17 peptide: Biotin-LEDMPVAPDNEAYEM
Protocol: as §1

[19] = target: T18, beta-synuclein protein (human, UniProt Q16143 1-134); experiment: ELISA on coated synuclein, 1 ug/mL
T18 construct: species read from 'recombinant human alpha-synuclein protein, beta-synuclein protein, and gamma-synuclein protein'
Protocol: (§2) Binding to different synuclein species was tested using a method similar to the ELISA format described above. Briefly, recombinant human alpha-synuclein protein, beta-synuclein protein, and gamma-synuclein protein was coated onto 96-well Nunc plates at 1 μg/mL. The plates were washed with PBST and blocked with 150 μL of 3% BSA in PBS. The serial dilutions of purified antibodies were applied onto the plate, and the associated antibody was detected with goat anti-rat HRP secondary antibody.

[20] = target: T19, gamma-synuclein protein (human, UniProt O76070 1-127); experiment: ELISA on coated synuclein, 1 ug/mL
T19 construct: species read from 'recombinant human alpha-synuclein protein, beta-synuclein protein, and gamma-synuclein protein'
Protocol: as §2

[21] = target: T20, human alpha-synuclein monomer (human, UniProt P37840 1-140); experiment: SPR (Biacore), antibody captured, monomer injected, 1:1 fit
Protocol: Anti-mouse Fc antibody (obtained from GE Healthcare) was immobilized on the surface of a CM5 chip (obtained from GE Healthcare) through amine-coupling to reach about 6,000 to 8,000 response units (RU). The surface was activated by injection of a mixture of 1-ethyl-3-(3-dimethylaminopropyl)-carbodiimide (EDC) and N-hydroxysuccinimide (NETS), both obtained from GE Healthcare, for 7 minutes at room temperature. […] Both injections were done at room temperature.
Purified rat anti alpha-synuclein antibody (10 μg/mL) was injected at room temperature and captured to reach 1,000 to 2,000 RU. […] Sensorgrams were fitted using a 1:1 Langmuir model to estimate kₒₙ and koff.

[22] = target: T6, asyn_113-127_125A; experiment: Ala-scan peptide ELISA, row F, run 1
Protocol: as §1

[23] = target: T7, asyn_113-127_127A; experiment: Ala-scan peptide ELISA, row F, run 1
Protocol: as §1

[24] = target: T20, human alpha-synuclein monomer; experiment: direct ELISA on coated antigen;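 also: plates coated with recombinant human, mouse or rat alpha-synuclein, purified antibody titrated 10 µg/mL down to 0.6 ng/mL for 1 h, bound antibody detected by anti-rat HRP with TMB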
Protocol: (§3) 96-well Nunc plates were coated with 50 μL of recombinant human, mouse, or rat alpha-synuclein at a concentration of 1 μg/mL in PBS at 4° C. overnight. The plates were then washed three times with PBST and blocked with PBS containing 3% BSA at room temperature for 1 hour. Purified antibody was diluted by serial dilution methods, from 10 μg/mL to 0.6 ng/mL, and 50 μL of the antibody solution was added to the alpha-synuclein-coated wells. The plates were incubated for 1 hour at room temperature, then washed three times with PBST. Secondary detection antibody (goat anti-rat HRP (obtained from Southern Biotech)) was added 50 μL/well, 1:5,000 diluted in BSA-PBS solution. Plates were incubated for 1 hour at room temperature, then washed three times with PBST. Plates were subsequently developed with 50 μL/well of TMB substrate (Thermo Fisher) and quenched with 50 μL/well of 1 N sulfuric acid. The signal was quantified on a BioTek® plate reader at A450.

[25] = target: rat alpha-synuclein (rat, UniProt P37377 1-140); experiment: direct ELISA on coated antigen;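 also: plates coated with recombinant human, mouse or rat alpha-synuclein, purified antibody titrated 10 µg/mL down to 0.6 ng/mL for 1 h, bound antibody detected by anti-rat HRP with TMB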
Protocol: as §3

[26] = target: T21, alpha-synuclein peptide 61-140 (human); experiment: peptide ELISA, coated fragment
T21 construct: synthetic peptide coated on plate
Protocol: (§4) 96-well Nunc plates were coated with 1 pg/mL of the indicated synthetic peptide in PBS 50 μL/well overnight. The plates were washed three times with PBST, then blocked with 150 μL of 3% BSA in PBS for 1 hour. Purified antibody was diluted by serial dilution methods, from 10 pg/mL to 0.6 ng/ml, and 50 μL of the antibody solution was added to the peptide-coated wells. The plates were incubated for 1 hour at room temperature, then washed three times with PBST. Secondary detection antibody, goat anti-rat HRP (obtained from Southern Biotech) 1:5,000 diluted in BSA-PBS, was added to a concentration of 50 μL/well. Plates were incubated for one hour and washed three times with PBST. Plates were then developed with 50 μL/well of TMB substrate (obtained from Thermo Fisher) and quenched with 50 μL/well of 1 N sulfuric acid. The signal was quantified on a BioTek® plate reader at A450.

[27] = target: T22, alpha-synuclein peptide 95-140 (human); experiment: peptide ELISA, coated fragment
T22 construct: synthetic peptide coated on plate
Protocol: as §4

B1: 20H4 (antibody, rat IgG2b, V domains shown)
VH: AVQLVESGGGLVQPKESLKISCAASGFTFSNAAMYWVRQAPGKGLELLARIRTKPNNYATYHADSVKGRFTISRDDSQSMVYLHMGNLKTEDTAMYYCTADMATGDYWGPGVMVTVSS
VL: DIQMTQSPPVLSVSVGDRVTLSCKASQNINKNLDWYQQKHGEAPKPLIYSTNNLQTGVPSRFSGSGSGTDYTLTISSLQPEDVATYYCYQYKSAWTFGGGTKLELR
notes: also called clone 20H4; rat 20H4
Q: How did the A450 [1] turn out when B1 was run?
A: 0.357 OD

Q: And the A450 [2]?
A: 0.366 OD

Q: And the A450 [3]?
A: 0.339 OD

Q: And the A450 [4]?
A: 0.287 OD

Q: And the A450 [5]?
A: 0.05 OD

Q: And the A450 [6]?
A: 0.05 OD

Q: And the A450 [7]?
A: 0.414 OD

Q: What about the A450 [8] of the same binder?
A: 0.321 OD

Q: And the A450 [9]?
A: 0.051 OD

Q: What about the A450 [10] of the same binder?
A: 0.331 OD

Q: What about the A450 [11] of the same binder?
A: 0.335 OD

Q: What about the A450 [12] of the same binder?
A: 0.767 OD

Q: What about the A450 [13] of the same binder?
A: 0.266 OD

Q: And the A450 [14]?
A: 0.405 OD

Q: And the A450 [15]?
A: 0.348 OD

Q: What about the A450 [16] of the same binder?
A: 0.18 OD

Q: And the A450 [17]?
A: 0.342 OD

Q: And the A450 [18]?
A: 0.046 OD

Q: Does B1 bind [19]?
A: no binding

Q: Does B1 bind [20]?
A: no binding

Q: And the Kd [21]?
A: 3.01 nM

Q: And the A450 [22]?
A: 0.044 OD

Q: And the A450 [23]?
A: 0.144 OD

Q: And the “Bmax (O.D. at 450 nm)” value [24]?
A: 0.83 OD

Q: And the EC50 [24]?
A: 0.18 nM

Q: What about the “Bmax (O.D. at 450 nm)” value [25] of the same binder?
A: 0.2 OD

Q: What about the EC50 [25] of the same binder?
A: 1.5 nM

Q: And the “antibody concentration at which ELISA is positive” value [26]?
A: < 40 ng/mL

Q: What about the “antibody concentration at which ELISA is positive” value [27] of the same binder?
A: < 40 ng/mL
